Blank lines part the entries; values can stand above or below the binder they belong to.
Legend:
[1] = target: T1, human LILRA3 (human, UniProt Q8N6C8 24-439); experiment: ELISA, OD450, antibody at 200 nM; + = 2-fold over ISO
T1 construct: bought protein coated for ELISA; also called hLILRA3

[2] = target: T2, human LILRB3 (human, UniProt O75022 24-443); experiment: as above
T2 construct: bought protein coated for ELISA; also called hLILRB3

[3] = target: T3, human LILRB5 (human, UniProt O75023 24-458); experiment: as above
T3 construct: bought protein coated for ELISA; also called hLILRB5

[4] = target: T4, human LILRA1 (human, UniProt O75019 17-461, limits assumed); experiment: as above
T4 construct: bought protein coated for ELISA; also called hLILRA1
T4 sequence (O75019 17-461 limits assumed): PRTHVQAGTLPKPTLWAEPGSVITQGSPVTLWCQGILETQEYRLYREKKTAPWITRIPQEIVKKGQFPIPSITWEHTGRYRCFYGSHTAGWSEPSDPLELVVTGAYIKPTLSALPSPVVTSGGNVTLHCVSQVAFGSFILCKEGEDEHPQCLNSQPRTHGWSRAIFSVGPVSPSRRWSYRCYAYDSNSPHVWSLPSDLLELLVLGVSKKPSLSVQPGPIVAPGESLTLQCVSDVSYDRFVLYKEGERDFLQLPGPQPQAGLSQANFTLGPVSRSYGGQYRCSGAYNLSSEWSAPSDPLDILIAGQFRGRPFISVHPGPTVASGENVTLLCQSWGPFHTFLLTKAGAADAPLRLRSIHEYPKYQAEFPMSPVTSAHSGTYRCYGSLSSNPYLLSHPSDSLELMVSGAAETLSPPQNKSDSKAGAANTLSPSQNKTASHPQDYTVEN

[5] = target: T5, human LILRB2 expressed on CHOK1 cells (human, UniProt Q8N423 22-597); experiment: flow cytometry (FACS) binding to CHOK1-hLILRB2 cells
T5 construct: whole, on cells; also called CHOK1-hLILRB2; CHOK1-LILRB2
T5 sequence (Q8N423 22-597): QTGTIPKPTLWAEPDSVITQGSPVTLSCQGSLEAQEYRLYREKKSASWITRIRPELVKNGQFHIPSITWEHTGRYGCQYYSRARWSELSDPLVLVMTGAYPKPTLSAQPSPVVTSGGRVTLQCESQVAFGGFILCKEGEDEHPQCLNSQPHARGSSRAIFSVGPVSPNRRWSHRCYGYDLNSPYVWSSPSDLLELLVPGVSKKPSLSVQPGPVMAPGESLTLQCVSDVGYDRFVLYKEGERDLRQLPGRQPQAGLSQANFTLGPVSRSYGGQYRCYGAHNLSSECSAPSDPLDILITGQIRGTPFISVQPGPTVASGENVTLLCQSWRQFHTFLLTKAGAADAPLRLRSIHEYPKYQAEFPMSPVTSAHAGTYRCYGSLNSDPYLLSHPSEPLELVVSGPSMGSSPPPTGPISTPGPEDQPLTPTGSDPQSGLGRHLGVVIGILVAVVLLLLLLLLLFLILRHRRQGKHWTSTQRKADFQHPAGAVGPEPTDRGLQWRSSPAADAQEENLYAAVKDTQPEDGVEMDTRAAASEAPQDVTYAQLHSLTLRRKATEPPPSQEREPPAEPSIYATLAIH

[6] = target: T6, human LILRB1 expressed on CHOK1 cells (human, UniProt Q8NHL6 24-650); experiment: flow cytometry (FACS) binding to CHOK1-hLILRB1 cells
T6 construct: whole, on cells; also called CHOK1-hLILRB1; CHOK1-LILRB1
T6 sequence (Q8NHL6 24-650): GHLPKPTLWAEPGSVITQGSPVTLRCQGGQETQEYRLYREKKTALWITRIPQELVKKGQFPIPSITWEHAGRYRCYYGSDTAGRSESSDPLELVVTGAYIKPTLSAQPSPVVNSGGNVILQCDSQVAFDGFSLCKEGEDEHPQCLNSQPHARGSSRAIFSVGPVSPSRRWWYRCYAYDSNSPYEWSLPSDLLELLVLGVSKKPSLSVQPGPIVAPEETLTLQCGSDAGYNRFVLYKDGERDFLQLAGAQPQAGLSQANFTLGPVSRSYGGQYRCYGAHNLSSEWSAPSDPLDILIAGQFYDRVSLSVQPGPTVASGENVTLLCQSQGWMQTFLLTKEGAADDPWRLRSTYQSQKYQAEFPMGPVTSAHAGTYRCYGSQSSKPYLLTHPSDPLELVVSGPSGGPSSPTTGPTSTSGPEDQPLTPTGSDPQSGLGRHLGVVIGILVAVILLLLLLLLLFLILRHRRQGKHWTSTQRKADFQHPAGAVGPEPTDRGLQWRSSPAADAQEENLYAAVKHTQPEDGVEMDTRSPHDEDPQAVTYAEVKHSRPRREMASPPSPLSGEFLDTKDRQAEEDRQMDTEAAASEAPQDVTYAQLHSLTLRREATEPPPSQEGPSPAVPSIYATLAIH

[7] = target: T6, human LILRB1 expressed on CHOK1 cells; experiment: cell based RBA on CHOK1-hLILRB1 cells, flow cytometry; competitor HLA-G
[8] = target: T5, human LILRB2 expressed on CHOK1 cells; experiment: cell based RBA on CHOK1-hLILRB2 cells, flow cytometry; competitor HLA-G
[9] = target: T7, human LILRB2 protein (Octet analyte) (human, UniProt Q8N423 22-460, limits assumed); experiment: Octet (BLI), off rate ranking, kdis
T7 construct: The construct used in the Octet assay is not described; also called hLILRB2
T7 sequence (Q8N423 22-460 limits assumed): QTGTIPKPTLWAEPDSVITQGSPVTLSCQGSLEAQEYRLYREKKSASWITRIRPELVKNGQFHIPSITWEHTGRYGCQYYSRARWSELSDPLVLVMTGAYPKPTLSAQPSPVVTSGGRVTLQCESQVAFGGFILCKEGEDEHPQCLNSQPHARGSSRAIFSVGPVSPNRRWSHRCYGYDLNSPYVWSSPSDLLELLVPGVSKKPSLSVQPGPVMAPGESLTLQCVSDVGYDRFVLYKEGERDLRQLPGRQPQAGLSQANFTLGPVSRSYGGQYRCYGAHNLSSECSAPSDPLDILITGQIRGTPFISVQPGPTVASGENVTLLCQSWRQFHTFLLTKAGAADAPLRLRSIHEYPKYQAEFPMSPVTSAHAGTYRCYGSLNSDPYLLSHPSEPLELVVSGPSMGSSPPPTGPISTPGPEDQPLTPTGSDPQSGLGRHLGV

[10] = target: T8, human LILRB1 protein (Octet analyte) (human, UniProt Q8NHL6 24-458, limits assumed); experiment: Octet (BLI), off rate ranking, kdis
T8 construct: The construct used in the Octet assay is not described; also called hLILRB1
T8 sequence (Q8NHL6 24-458 limits assumed): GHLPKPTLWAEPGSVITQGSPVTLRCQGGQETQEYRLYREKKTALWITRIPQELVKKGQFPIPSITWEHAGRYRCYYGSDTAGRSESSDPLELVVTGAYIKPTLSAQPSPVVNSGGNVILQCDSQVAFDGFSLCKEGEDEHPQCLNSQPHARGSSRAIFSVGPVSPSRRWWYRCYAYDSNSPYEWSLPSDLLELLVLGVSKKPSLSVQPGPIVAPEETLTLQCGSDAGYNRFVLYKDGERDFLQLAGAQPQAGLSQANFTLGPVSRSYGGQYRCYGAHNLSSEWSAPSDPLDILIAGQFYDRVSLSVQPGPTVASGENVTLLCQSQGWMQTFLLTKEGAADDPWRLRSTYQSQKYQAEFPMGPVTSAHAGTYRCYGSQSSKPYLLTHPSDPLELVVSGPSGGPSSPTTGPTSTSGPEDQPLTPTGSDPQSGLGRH

[11] = target: T9, human LILRA1 (human, UniProt O75019 17-461, limits assumed); experiment: ELISA, 200 nM antibody, OD450; + = 2-fold over ISO
T9 construct: Bought protein; also called hLILRA1
T9 sequence (O75019 17-461 limits assumed): as the sequence (O75019 17-461 limits assumed) above

[12] = target: T10, human LILRA2 (human, UniProt Q8N149 24-449); experiment: ELISA, 200 nM antibody, OD450; + = 2-fold over ISO
T10 construct: Bought protein; also called hLILRA2
T10 sequence (Q8N149 24-449 limits assumed): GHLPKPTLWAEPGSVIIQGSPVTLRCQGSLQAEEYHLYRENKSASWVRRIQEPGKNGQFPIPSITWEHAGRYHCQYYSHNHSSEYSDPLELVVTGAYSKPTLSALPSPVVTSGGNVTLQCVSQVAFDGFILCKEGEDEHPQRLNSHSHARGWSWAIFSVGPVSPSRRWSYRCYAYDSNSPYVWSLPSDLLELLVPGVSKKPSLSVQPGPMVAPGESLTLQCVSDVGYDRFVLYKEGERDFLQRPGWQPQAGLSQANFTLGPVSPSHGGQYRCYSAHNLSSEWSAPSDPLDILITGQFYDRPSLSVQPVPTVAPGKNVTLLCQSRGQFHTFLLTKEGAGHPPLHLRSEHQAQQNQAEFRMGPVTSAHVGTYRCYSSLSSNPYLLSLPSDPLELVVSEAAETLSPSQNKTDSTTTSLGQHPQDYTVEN

[13] = target: T11, Biotinylated LILRB1 (UniProt Q8NHL6 24-458, limits assumed, biotinylated (sites not given)); experiment: epitope binning ELISA, coated 1 ug/ml; competitor LK-RB1-16 at 20 ug/ml
T11 sequence (Q8NHL6 24-458 limits assumed): as the sequence (Q8NHL6 24-458 limits assumed) above

[14] = target: T11, Biotinylated LILRB1; experiment: epitope binning ELISA, coated 1 ug/ml; competitor LK-RB1-9 at 20 ug/ml
[15] = target: T11, Biotinylated LILRB1; experiment: epitope binning ELISA, coated 1 ug/ml; competitor 15G8 at 20 ug/ml
[16] = target: T11, Biotinylated LILRB1; experiment: epitope binning ELISA, coated 1 ug/ml; competitor LK-RB1-47 at 20 ug/ml
[17] = target: T11, Biotinylated LILRB1; experiment: epitope binning ELISA, coated 1 ug/ml; competitor LK-RB1-33 at 20 ug/ml
[18] = target: T12, human LILRA2 (human, UniProt Q8N149 24-449, limits assumed); experiment: Octet off-rate ranking;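 further: antibody dissociation rate constants against cynomolgus LILRB2 plus human LILRB1, LILRB2, LILRA1 and LILRA2, measured on an Octet instrument to rank binding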
T12 construct: also called hLILRA2
T12 sequence (Q8N149 24-449 limits assumed): as the sequence (Q8N149 24-449 limits assumed) above

[19] = target: T13, human LILRA1 (human, UniProt O75019 17-461, limits assumed); experiment: Octet off-rate ranking;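 further: antibody dissociation rate constants against cynomolgus LILRB2 plus human LILRB1, LILRB2, LILRA1 and LILRA2, measured on an Octet instrument to rank binding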
T13 construct: also called hLILRA1
T13 sequence (O75019 17-461 limits assumed): as the sequence (O75019 17-461 limits assumed) above

[20] = target: T14, human LILRB1 (human, UniProt Q8NHL6 24-458, limits assumed); experiment: Octet off-rate ranking;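 further: antibody dissociation rate constants against cynomolgus LILRB2 plus human LILRB1, LILRB2, LILRA1 and LILRA2, measured on an Octet instrument to rank binding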
T14 construct: also called hLILRB1
T14 sequence (Q8NHL6 24-458 limits assumed): as the sequence (Q8NHL6 24-458 limits assumed) above

[21] = target: T11, Biotinylated LILRB1; experiment: epitope binning ELISA, coated 1 ug/ml; competitor hz73D1.v1 at 20 ug/ml
[22] = target: T11, Biotinylated LILRB1; experiment: epitope binning ELISA, coated 1 ug/ml; competitor LK-RB1-12 at 20 ug/ml
[23] = target: T11, Biotinylated LILRB1; experiment: epitope binning ELISA, coated 1 ug/ml; competitor LK-RB1-31 at 20 ug/ml
[24] = target: T15, human LILRA2 (human, UniProt Q8N149 24-449); experiment: ELISA, OD450, antibody at 200 nM; + = 2-fold over ISO
T15 construct: bought protein coated for ELISA; also called hLILRA2
T15 sequence (Q8N149 24-449 limits assumed): as the sequence (Q8N149 24-449 limits assumed) above

[25] = target: T16, human LILRB3 (human, UniProt O75022 24-443); experiment: as above; remark: listed apart in the source
T16 construct: bought protein coated for ELISA; also called hLILRB3

[26] = target: T17, human LILRA4 (human, UniProt P59901 24-446); experiment: as above
T17 construct: bought protein coated for ELISA; also called hLILRA4
T17 sequence (P59901 24-446 limits assumed): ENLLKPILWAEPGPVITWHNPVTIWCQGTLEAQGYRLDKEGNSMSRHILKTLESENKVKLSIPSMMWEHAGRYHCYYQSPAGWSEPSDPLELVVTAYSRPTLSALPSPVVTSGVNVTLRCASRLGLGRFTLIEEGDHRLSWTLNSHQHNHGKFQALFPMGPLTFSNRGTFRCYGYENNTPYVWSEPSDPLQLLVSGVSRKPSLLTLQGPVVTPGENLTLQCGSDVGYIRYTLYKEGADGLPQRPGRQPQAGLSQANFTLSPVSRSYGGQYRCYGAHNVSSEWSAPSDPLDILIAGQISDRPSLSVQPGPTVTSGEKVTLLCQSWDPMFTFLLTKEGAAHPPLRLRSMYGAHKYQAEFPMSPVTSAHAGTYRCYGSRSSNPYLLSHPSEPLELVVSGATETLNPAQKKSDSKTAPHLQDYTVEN

[27] = target: T18, human LILRB4 (human, UniProt Q8NHJ6 22-259); experiment: as above
T18 construct: bought protein coated for ELISA; also called hLILRB4

B2: LK-RBi-05 (bispecific antibody, human IgG4 S228P, kappa)
heavy: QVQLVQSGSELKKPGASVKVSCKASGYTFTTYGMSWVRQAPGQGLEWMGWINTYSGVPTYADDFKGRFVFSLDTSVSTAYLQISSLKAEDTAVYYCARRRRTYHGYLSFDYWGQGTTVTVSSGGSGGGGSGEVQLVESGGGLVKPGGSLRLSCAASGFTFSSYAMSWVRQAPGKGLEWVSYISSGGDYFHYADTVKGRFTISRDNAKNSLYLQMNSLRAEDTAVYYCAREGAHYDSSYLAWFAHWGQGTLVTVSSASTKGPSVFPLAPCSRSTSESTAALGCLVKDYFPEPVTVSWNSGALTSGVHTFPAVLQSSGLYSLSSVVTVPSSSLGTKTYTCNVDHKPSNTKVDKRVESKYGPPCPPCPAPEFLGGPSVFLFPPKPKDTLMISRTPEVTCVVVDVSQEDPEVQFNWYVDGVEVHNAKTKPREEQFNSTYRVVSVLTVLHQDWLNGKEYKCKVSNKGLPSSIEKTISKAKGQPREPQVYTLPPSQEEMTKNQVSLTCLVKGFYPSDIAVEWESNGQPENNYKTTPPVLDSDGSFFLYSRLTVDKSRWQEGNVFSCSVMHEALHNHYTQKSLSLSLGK
light: DIQMTQSPSSLSASVGDRVTITCETSENIYGALNWYQQKPGKAPKLLIYGATNLAEGVPSRFSGSGSGTDFTFTISSLQPEDIATYYCQNVLNTPWTFGGGTKLEIKGGSGGGGSGDIQMTQSPSSVSASVGDRVTITCRASENIYSNLAWYQQKPGKAPKLLIYAATNLAEGVPSRFSGSGSGTDYTLTISSLQPEDFATYYCQQFWDNPLTFGQGTKLEIKRTVAAPSVFIFPPSDEQLKSGTASVVCLLNNFYPREAKVQWKVDNALQSGNSQESVTEQDSKDSTYSLSSTLTLSKADYEKHKVYACEVTHQGLSSPVTKSFNRGEC
- EC50 [5]: 0.73 nM
- EC50 [6]: 2.32 nM
- EC50 [7]: 4.2 µg/mL
- EC50 [8]: 0.43 µg/mL
- koff [9]: 8.24e-06 s⁻¹
- koff [10]: 0.00021 s⁻¹

B3: LK-RB2-41 (antibody, human IgG4 S228P, kappa, V domains shown)
VH: EVQLQLSGPELVKPGASVKMSCKASGYTFTDYNMHWVKQSHGKSLEWIGYINPNNGGTTYNQKFKGKATLTVNKSSSTAYMELRSLTSEDSAVYYCARAPYYGSSYLLAYWGQGTLVTVSA
VL: DIVMTQSHKFMSTSVGDRVSITCKASQDVSTAVAWYQQKPGQSPKLLIYSASYRYTGVPDRFTGSGSGTDFTFTISSVQAEDLAIYYCQQHYSIPWTFGGGTKLEIKR
- binding result [11]: binds
- binding result [12]: binds

B5: LK-RB2-29 (antibody, human IgG4 S228P, kappa, V domains shown)
VH: QVQLQQSGAELARPGASVKLSCKASGYTFTSYWMQWVKQRPGQGLEWIGAIYPGDGDTRYTQKFKGKATLTADKSSSTAYMQLSSLASEDSAVYYCARGYYGSSYADYFDYWGQGTTLTVSS
VL: DIQMTQSPASLSASVGETVTITCRASGNIHNYLAWYQQKQGKSPQLLVYNAKTLADGVPSRFSGSGSGTQYSLKINSLQPEDFGSYYCQHFWSTPPTFGGGTKLEIKR
- binding result [11]: binds
- binding result [12]: binds

B6: LK-RB1-9 (antibody, human IgG4 S228P, kappa, V domains shown)
VH: QIQLVQSGPELKKPGETVKISCTASGYTFTTYGMSWVKQAPGKGLKWMGWINTYSGVPTYADDFKGRFAFSLETSASTAYLEINNVKNEDTATYFCARRRRTYHGYLCFDYWGQGTTLTVSS
VL: DIQMTQSPVSLSASVGETVTITCETSENIYGALNWYQRKQGKSPQLLIYGATNLADGMSSRFSGSGSGRQYSLEISSLHPDDVASYYCQNVLNTPWTFGGGTKLEIKR
- Inhibition % [13]: 21.9%
- Inhibition % [14]: 73.9%
- Inhibition % [15]: 48.6%
- Inhibition % [16]: 89.1%
- Inhibition % [17]: 67.4%
- koff [18]: 0.000885 s⁻¹
- koff [19]: 0.000155 s⁻¹
- koff [20]: 0.000162 s⁻¹
- Inhibition % [21]: 88.1%
- Inhibition % [22]: 92.1%
- Inhibition % [23]: 10.2%

B8: 15G8 (antibody, human IgG4 S228P, kappa, V domains shown)
VH: DVQLQGSGPGLVKPSETLSLTCSVTGYSITSGYYWNWIRQFPGKKLEWMGYISYDGSNNYNPSLKNRITISRDTSKNQFSLKLNSVTAADTATYYCAHGYSYYYAMDAWGQGTSVTVSS
VL: DIQMTQSPSSLSASVGDRVTITCRTSQDISNYLNWYQQKPGKAVKLLISYTSRLHSGVPSRFSGSGSGTDYTLTISSLQPEDFATYYCQQGNTLPTFGQGTKLEIKR
- Inhibition % [13]: -0.72%
- Inhibition % [14]: 92.1%
- Inhibition % [15]: 73%
- Inhibition % [16]: 13.5%
- Inhibition % [17]: 90.5%
- koff [18]: 0.00117 s⁻¹
- koff [19]: 0.000278 s⁻¹
- koff [20]: 0.00389 s⁻¹
- Inhibition % [21]: -0.56%
- Inhibition % [22]: 3.58%
- Inhibition % [23]: -0.67%

B9: LK-RB1-1 (antibody, human IgG4 S228P, kappa, V domains shown)
VH: QIQLVQSGPELKKPGETVKISCKASGYSFTNFGMSWVKQAPGKALKWMGWINTYSGVPTYADDFKGRFAFSLETSANTAYLQINNLKNEDSATYFCARRRRTFDGYLCFDYWGQGATLTVSS
VL: QLVLTQSSSASFSLGASAKLTCTLSSQHSTYSIDWYQQQPLKPPKYVMELKTDGSHRTGDGIPDRFSGSSSGADRYLSISNIQPEDEAIYICGVGDTIKEQFVYVFGGGTKVTVLR
notes: anti-LILRB1 antibody
- binding result [26]: binds
- binding result [27]: binds

Results, then the binder that gave them:

- binding result [1]: binds
- binding result [2]: binds
- binding result [3]: binds
- binding result [4]: binds
B1: LK-RB1-39 (antibody, human IgG4 S228P, kappa, V domains shown)
VH: EVQLQQSGAELVRPGASVKLSCTASGFNIKDDYVHWVNQRPEQGLEWIGWIDPENGDTGYASKFQDKATITADTSSNTAYLHLSSLTSEDTAVYYCTTTRWTGSYWGQGTTLTVSS
VL: QIVLTQSPAIMSASPGEKVTITCSASSSVNYMHWFQQKPGSSPKLWIYSTANLASGVPARFSGSGSGTSYSLTISRMEAEDAATYYCQQRSSYPPTWTFGGGTKLEIKR
notes: anti-LILRB1 clone from mouse hybridoma

- EC50 [5]: 0.37 nM
- EC50 [6]: 2.66 nM
- EC50 [7]: 6.03 µg/mL
- EC50 [8]: 0.28 µg/mL
- koff [9]: 5.68e-05 s⁻¹
- koff [10]: 0.000166 s⁻¹
B4: LK-RBi-08 (bispecific antibody, human IgG4 S228P, kappa)
heavy: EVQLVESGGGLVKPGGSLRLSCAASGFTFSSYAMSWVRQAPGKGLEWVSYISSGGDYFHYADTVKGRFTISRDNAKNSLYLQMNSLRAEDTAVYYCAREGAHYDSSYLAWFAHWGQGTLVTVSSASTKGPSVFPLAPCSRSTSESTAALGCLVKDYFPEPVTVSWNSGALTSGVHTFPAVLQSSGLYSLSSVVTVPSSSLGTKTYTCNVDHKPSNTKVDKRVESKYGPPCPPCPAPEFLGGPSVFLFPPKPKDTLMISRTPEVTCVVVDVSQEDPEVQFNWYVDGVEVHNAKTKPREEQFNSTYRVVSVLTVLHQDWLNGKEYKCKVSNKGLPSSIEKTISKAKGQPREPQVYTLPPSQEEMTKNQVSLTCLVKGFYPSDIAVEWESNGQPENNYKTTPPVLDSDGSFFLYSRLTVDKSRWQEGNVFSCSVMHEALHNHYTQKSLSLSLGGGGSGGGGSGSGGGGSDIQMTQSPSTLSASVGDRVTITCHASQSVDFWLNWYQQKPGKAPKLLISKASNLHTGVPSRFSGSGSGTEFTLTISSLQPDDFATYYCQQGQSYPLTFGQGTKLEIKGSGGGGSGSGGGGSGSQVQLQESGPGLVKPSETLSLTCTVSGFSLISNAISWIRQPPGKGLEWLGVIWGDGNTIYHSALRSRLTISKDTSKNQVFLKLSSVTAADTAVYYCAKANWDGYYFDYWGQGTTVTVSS
light: DIQMTQSPSSVSASVGDRVTITCRASENIYSNLAWYQQKPGKAPKLLIYAATNLAEGVPSRFSGSGSGTDYTLTISSLQPEDFATYYCQQFWDNPLTFGQGTKLEIKRTVAAPSVFIFPPSDEQLKSGTASVVCLLNNFYPREAKVQWKVDNALQSGNSQESVTEQDSKDSTYSLSSTLTLSKADYEKHKVYACEVTHQGLSSPVTKSFNRGEC

- binding result [24]: binds
- binding result [25]: binds
B7: LK-RB1-5 (antibody, human IgG4 S228P, kappa, V domains shown)
VH: QVQLQQPGAELVKPGASVKLSCKASGYTFTDFWIHWVKQRPGQGLEWIGMIHPNSGSTNFNEKFRAKATLTVDKSSSTAYMRLSSLTSEDSAVYYCARSGDGYSNPMDYWGQGTSVTVSS
VL: QIVLSQSPAILSASPGEKVTLTCRASSSVSYMHWYQQKPGSSPKPWIYATSNLASGVPVRFSGSGSGTSYSLTISRMQTEDAATYYCQQWRRSPYTFGGGTKLEIKR
notes: anti-LILRB1 antibody

Source: patent publication US20260234247A1 (published 2026)
